Test results taken from article PMC3308208, “Disassembly and reassembly of human papillomavirus virus-like particles produces more virion-like antibody reactivity” (Virology Journal, 2012).

Target: the molecule itself
Test: cryo-EM imaging; post-D/R HPV16 VLPs, undiluted, in vitrified ice on holey carbon films; Tecnai F20 at 120 keV

B1: HPV16 L1 virus-like particles (VLPs) (natural protein)
chain: MSLWLPSEATVYLPPVPVSKVVSTDEYVARTNIYYHAGTSRLLAVGHPYFPIKKPNNNKILVPKVSGLQYRVFRIHLPDPNKFGFPDTSFYNPDTQRLVWACVGVEVGRGQPLGVGISGHPLLNKLDDTENASAYAANAGVDNRECISMDYKQTQLCLIGCKPPIGEHWGKGSPCTNVAVNPGDCPPLELINTVIQDGDMVDTGFGAMDFTTLQANKSEVPLDICTSICKYPDYIKMVSEPYGDSLFFYLRREQMFVRHLFNRAGAVGENVPDDLYIKGSGSTANLASSNYFPTPSGSMVTSDAQIFNKPYWLQRAQGHNNGICWGNQLFVTVVDTTRSTNMSLCAAISTSETTYKNTNFKEYLRHGEEYDLQFIFQLCKITLTADVMTYIHSMNSTILEDWNFGLQPPPGGTLEDTYRFVTSQAIACQKHTPPAPKEDPLKKYTFWEVNLKEKFSADLDQFPLGRKFLLQAGLKAKPKFTLGKRKATPTTSSTSTTAKRKKRKL
notes: major capsid protein L1 of human papillomavirus type 16, full length, self-assembled into VLPs; The same L1 protein was tested as pre-D/R VLPs (purified only) and as post-D/R VLPs (disassembled and reassembled); The T = 7 count of 360 copies is stated only in the background; also called HPV 16 L1 VLPs; post-D/R VLPs; source: over expressed in yeast, purified VLPs; post-D/R lots after disassembly …
B1: binds.
